Laboratory results from US20230340143A1 (published 2023).

T1: CD39 mutant 5 (human, UniProt P49961 1-510)
T1 construct: Expressed on transfected HEK-293T cells; also called M5
T1 chain: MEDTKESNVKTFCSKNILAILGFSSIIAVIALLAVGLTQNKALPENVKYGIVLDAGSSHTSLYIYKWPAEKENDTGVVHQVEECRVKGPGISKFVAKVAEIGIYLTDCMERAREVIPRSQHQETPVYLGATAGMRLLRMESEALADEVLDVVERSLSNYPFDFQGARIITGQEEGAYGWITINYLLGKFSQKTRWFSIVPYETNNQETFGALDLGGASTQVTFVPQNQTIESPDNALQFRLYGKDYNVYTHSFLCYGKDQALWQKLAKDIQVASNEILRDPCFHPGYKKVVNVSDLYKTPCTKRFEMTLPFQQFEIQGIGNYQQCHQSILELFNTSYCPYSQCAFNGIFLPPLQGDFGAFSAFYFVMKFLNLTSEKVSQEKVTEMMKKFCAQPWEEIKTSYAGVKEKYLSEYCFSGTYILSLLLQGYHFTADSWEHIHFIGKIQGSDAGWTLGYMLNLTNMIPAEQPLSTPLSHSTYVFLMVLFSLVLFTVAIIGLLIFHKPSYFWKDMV

T2: human CD39 expressed at the cell surface (human, UniProt P49961 1-510)
T2 construct: On CHO transfectants, HEK-293T transfectants or endogenous on Ramos cells; also called huCD39; CHO-huCD39
T2 sequence: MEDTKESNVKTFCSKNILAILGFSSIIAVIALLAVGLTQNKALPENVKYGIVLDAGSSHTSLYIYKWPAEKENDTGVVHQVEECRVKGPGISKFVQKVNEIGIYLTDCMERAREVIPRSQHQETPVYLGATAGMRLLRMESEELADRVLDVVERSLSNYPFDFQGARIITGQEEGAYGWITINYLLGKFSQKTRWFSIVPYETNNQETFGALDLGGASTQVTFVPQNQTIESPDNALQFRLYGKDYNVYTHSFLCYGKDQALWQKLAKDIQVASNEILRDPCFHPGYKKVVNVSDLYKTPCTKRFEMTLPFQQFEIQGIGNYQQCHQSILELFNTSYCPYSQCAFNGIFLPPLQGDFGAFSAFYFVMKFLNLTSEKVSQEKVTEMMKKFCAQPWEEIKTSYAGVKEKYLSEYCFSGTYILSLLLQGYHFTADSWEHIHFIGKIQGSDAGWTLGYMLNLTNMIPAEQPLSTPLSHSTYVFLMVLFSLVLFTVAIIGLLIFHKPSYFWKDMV

T3: CD39 mutant 19 (human, UniProt P49961 1-510)
T3 construct: Expressed on transfected HEK-293T cells; also called M19
T3 chain: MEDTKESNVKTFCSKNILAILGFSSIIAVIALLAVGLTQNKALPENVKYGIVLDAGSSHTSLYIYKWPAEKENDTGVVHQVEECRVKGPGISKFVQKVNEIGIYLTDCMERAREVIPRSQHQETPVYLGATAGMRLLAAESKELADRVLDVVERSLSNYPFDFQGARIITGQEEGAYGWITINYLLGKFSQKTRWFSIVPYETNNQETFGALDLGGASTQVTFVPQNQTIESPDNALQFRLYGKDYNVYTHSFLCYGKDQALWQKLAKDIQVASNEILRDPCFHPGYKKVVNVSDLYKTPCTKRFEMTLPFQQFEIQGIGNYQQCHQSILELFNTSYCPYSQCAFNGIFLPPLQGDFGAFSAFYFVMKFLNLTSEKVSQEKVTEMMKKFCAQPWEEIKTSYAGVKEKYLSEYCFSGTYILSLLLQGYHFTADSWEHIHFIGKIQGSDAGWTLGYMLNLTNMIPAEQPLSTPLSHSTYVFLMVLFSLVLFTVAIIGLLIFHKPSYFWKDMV

T4: Human CD39-L1 (human, UniProt Q9Y5L3 1-495)
T4 construct: Recombinant protein coated in ELISA; also called NTPDase2; ENTPD2
T4 sequence: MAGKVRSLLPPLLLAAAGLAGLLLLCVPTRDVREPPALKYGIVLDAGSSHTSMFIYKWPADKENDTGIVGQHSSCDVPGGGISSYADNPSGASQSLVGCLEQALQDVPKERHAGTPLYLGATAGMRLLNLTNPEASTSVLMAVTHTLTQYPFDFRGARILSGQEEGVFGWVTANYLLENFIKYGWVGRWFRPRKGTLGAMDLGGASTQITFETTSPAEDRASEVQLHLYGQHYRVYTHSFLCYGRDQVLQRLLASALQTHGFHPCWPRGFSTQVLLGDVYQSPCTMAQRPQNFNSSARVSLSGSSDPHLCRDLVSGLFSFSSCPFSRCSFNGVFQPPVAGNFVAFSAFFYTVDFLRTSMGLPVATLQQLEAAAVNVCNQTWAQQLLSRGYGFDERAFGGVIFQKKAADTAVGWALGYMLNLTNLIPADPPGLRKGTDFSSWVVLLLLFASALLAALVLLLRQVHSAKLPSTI


Experiments:
[1] = target: T1, CD39 mutant 5; assay: flow cytometry on HEK-293T cells expressing mutant 5
Procedure: (§1) In order to define the epitopes of the further anti-CD39 antibodies of Example 5, they were tested for loss of binding to the panel of CD39 mutants as described in Example 1 and Table 1. Mutants were transfected in Hek-293T cells, as shown in the table 1, using numbering of SEQ ID NO: 1.Dose-ranges of test antibodies (10 - 2.5 - 0.625 - 0.1563 - 0.0391 - 0.0098 - 0.0024 - 0.0006 µg/ml) are tested on the 20 generated mutants by flow cytometry.

[2] = target: T2, human CD39 expressed at the cell surface; assay: flow cytometry screen on CHO expressing huCD39 against wild type CHO
Procedure: In initial immunization protocols, the primary screen involved testing supernatant (SN) of growing clones by flow cytometry using wild type CHO and CHO expressing huCD39 cell lines. Cells were stained with 0.1 µM and 0.005 µM CFSE, respectively. […] For antibodies that bound huCD39, supernatants were then screened for inhibition of the enzymatic activity of soluble CD39 using the screening assay developed and described above (Methods).
In view of the absence of antibodies able to inhibit soluble CD39, a further immunization was carried out with a screening protocol designed to favor the generation of antibodies that bind the active site of CD39 as identified by the epitope of antibody BY40. Briefly, the primary screen involved testing supernatant (SN) of growing clones by flow cytometry using wild type CHO and CHO expressing huCD39 cell lines, as in the preceding immunizations, followed by screening for loss of binding Hek-293T cells expressing CD39 mutant 5, compared to wild-type CD39, as shown in Table 1. Mutant 5 has substitutions at residues Q96, N99, E143 and R147.

[3] = target: T3, CD39 mutant 19; assay: flow cytometry on HEK-293T cells expressing mutant 19
Procedure: as §1

[4] = target: T1, CD39 mutant 5; assay: flow cytometry screen on HEK-293T cells expressing CD39 mutant 5
[5] = target: T4, Human CD39-L1; assay: ELISA, recombinant isoform coated
Procedure: Wells were washed in TBS Tween 20, and further saturated 2H at RT in TBS Blocking buffer. Dose range concentration of primary antibody was incubated in TBS blocking buffer for 2 h at RT. Wells were washed in TBS Tween 20. […] Optical density was measured on Enspire™ at OD=450.

Row | binding result [1] | binding result [2] | binding result [3] | binding result [4] | binding result [5] | Binder
1 | binds | binds | binds | – | – | antibody I-396 (antibody, V domains shown, Hybridoma antibody purified on protein A) VH: EVQLQQSGAELVKPGASVKLSCIVSGFNIKDTYINWVKQRPEQGLEWIGRIDPANGNTKYDPKFQGKATMTSDTSSNTAYLHLSSLTSDDSAVYYCARWGYDDEEADYFDSWGQGTTLTVSS VL: not shown
2 | – | binds | – | – | – | antibody I-399 (antibody, V domains shown, Hybridoma antibody purified on protein A) VH: PVQLQQPGAEVVMPGASVKLSCKASGYTFTSFWMNWMRQRPGQGLEWIGEIDPSDFYTNSNQRFKGKATLTVDKSSSTAYMQLSSLTSEDSAVYFCARGDFGWYFDVWGTGTSVTVSS VL: EIVLTQSPTTMTSSPGEKITFTCSASSSINSNYLHWYQQKPGFSPKLLIYRTSNLASGVPTRFSGSGSGTSYSLTIGTMEAEDVATYYCQQGSSLPRTFGGGTKLEIK
3 | – | – | – | binds | no binding | antibody I-394 (antibody, V domains shown, Mouse hybridoma antibody; also produced with human IgG1 constant domains carrying L234A/L235E/G237A/A330S/P331S (Kabat EU) and a huCk constant domain) VH: EVQLQQSGPELVKPGASVKMSCKASGYTFTDYNMHWVKQSHGRTLEWIGYIVPLNGGSTFNQKFKGRATLTVNTSSRTAYMELRSLTSEDSAAYYCARGGTRFAYWGQGTLVTVSA VL: not shown
4 | – | binds | – | – | – | antibody I-395 (antibody, V domains shown, Hybridoma antibody purified on protein A) VH: EVQLQQSGPELVKPGASVRMSCKASGYTFTDYNMHWVKKNHGKGLEWIGYINPNNGGTTYNQKFKGKATLTVNTSSKTAYMELRSLTSEDSAVYYCTRGGTRFASWGQGTLVTVSA VL: not shown
